Sequences and labels used below:
B1: LG-EndoEC, full length extracellular region of human endoglin (residues 22-587), low glycosylation (domain or fragment, UniProt P17813 22-587, looked up)
chain: TSLAETVHCDLQPVGPERGEVTYTTSQVSKGCVAQAPNAILEVHVLFLEFPTGPSQLELTLQASKQNGTWPREVLLVLSVNSSVFLHLQALGIPLHLAYNSSLVTFQEPPGVNTTELPSFPKTQILEWAAERGPITSAAELNDPQSILLRLGQAQGSLSFCMLEASQDMGRTLEWRPRTPALVRGCHLEGVAGHKEAHILRVLPGHSAGPRTVTVKVELSCAPGDLDAVLILQGPPYVSWLIDANHNMQIWTTGEYSFKIFPEKNIRGFKLPDTPQGLLGEARMLNASIVASFVELPLASIVSLHASSCGGRLQTSPAPIQTTPPKDTCSPELLMSLIQTKCADDAMTLVLKKELVAHLKCTITGLTFWDPSCEAEDRGDKFVLRSAYSSCGMQVSASMISNEAVVNILSSSSPQRKKVHCLNMDSLSFQLGLYLSPHFLQASNTIEPGQQSFVQVRVSPSVSEFLLQLDSCHLDLGPEGGTVELIQGRAAKGNCVSLLSPSPEGDPRFSFLLHFYTVPIPKTGTLSCTVALRPKTGSQDQEVHRTVFMRLNIISPDLSGCTSKGL
modifications: short, well defined sugars of the type Man5NAG2 (low glycosylation); putative Asn glycosylation sites Asn88, Asn102, Asn121, Asn134 and Asn307 (Asn306 in Figure 1)
notes: endoglin, human, extracellular region, residues 22-587; Dimeric and monomeric species seen on gels; also called endoglin ectodomain; source: HEK293S GnTI- suspension cells, transfected, secreted, purified (HisTrap, gel filtration); not shown: 6xHis, C-terminal, kept

Data set [1] addresses Endo362, endoglin orphan domain construct with the linker region (residues 22-361 or 22-362) (human) (UniProt P17813). The data set can be described thus: SDS-PAGE under reducing and non-reducing conditions with anti-His6 western blot; 10% SDS gel, 0.5 µg protein; with or without 10 mM DTT (1 h, 65°C); boiled at 95°C for 5 min; disulfide-linked dimer. For orientation: In western blotting, separated proteins are transferred to a membrane and probed.

Data set [2] has as its target Bone morphogenetic protein 9 (BMP-9) (human) (UniProt Q9UK05). Put plainly: SPR; Biacore T100; BMP-9 immobilised on CM5 chip by amine coupling; analyte alone at six concentrations 12.5-400 nM; 25°C; 10 mM HEPES pH 7.4, 150 mM NaCl, 3 mM EDTA, 0.05% P20; 1:1 binding model, global fit; apparent KD; triplicates. (Surface plasmon resonance follows binding to a sensor surface in real time, without labels.)

Data set [3] concerns the molecule itself. The data set can be described thus: SDS-PAGE under reducing and non-reducing conditions with anti-His6 western blot; 10% SDS gel, 0.5 µg protein; with or without 10 mM DTT (1 h, 65°C); boiled at 95°C for 5 min; disulfide-linked dimer.
Data set [4] concerns the target T1, Endo338, endoglin orphan domain construct (residues 22-337) (human, UniProt P17813 22-337, Man5NAG2 glycans (5 modelled at their attachment sites)).
T1 construct: also called Endoglin338; OD; source: HEK293S GnTI- suspension cells, transfected, secreted, purified (HisTrap, gel filtration); not shown: 6xHis, C-terminal, kept
T1 sequence (looked up): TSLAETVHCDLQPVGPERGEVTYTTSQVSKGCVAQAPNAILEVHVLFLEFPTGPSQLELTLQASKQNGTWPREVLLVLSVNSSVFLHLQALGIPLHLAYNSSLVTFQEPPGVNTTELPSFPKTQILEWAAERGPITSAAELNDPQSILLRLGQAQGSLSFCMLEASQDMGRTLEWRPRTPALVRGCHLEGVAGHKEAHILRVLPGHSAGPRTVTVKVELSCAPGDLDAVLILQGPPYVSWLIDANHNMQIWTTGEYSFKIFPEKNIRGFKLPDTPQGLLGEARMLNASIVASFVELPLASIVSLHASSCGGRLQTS
Put plainly: SPR; Biacore T100; BMP-9 immobilised on CM5 chip by amine coupling; analyte alone at six concentrations 12.5-400 nM; 25°C; 10 mM HEPES pH 7.4, 150 mM NaCl, 3 mM EDTA, 0.05% P20; 1:1 binding model, global fit; apparent KD; triplicates. As to conditions: both partners purified.

Data set [5] addresses B1. The data set is described as above. To be noted: both partners purified.
For data set [6], the target named is T2, HG-EndoEC, full length extracellular region of human endoglin (residues 22-587), high glycosylation (human, UniProt P17813 22-587, mature, branched sugars (high glycosylation); putative Asn glycosylation sites Asn88, Asn102, Asn121, Asn134 and Asn307 (Asn306 in Figure 1)).
T2 construct: endoglin, human, extracellular region, residues 22-587; EndoEC dimerized to some extent through a disulfide bond; also called endoglin ectodomain; source: HEK293 FreeStyle (HEK293F), transfected, secreted, purified (HisTrap, gel filtration)
T2 sequence (looked up): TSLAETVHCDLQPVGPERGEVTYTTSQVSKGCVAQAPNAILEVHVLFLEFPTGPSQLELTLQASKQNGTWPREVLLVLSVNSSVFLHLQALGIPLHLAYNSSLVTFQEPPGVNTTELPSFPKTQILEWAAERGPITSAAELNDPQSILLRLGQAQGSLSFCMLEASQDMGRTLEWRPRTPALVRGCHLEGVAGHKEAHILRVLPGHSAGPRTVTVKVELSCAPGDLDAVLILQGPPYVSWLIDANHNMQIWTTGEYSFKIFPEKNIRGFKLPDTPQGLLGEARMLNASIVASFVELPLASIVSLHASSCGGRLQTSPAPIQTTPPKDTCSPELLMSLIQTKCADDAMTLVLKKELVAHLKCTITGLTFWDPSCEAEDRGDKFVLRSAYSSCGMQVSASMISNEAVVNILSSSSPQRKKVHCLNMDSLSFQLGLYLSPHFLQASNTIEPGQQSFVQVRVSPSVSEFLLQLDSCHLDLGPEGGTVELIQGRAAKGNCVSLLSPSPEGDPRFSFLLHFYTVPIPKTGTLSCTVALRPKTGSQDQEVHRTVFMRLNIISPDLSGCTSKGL
The description is as above. As to conditions: both partners purified.

Data set [7] has as its target B1. Put plainly: SPR; Biacore T100; endoglin coinjected with a constant saturating concentration of HG-ALK1EC over immobilised BMP-9; 25°C; 10 mM HEPES pH 7.4, 150 mM NaCl, 3 mM EDTA, 0.05% P20; 1:1 binding model. As to conditions: both partners purified.
Data set [8] has as its target T2, HG-EndoEC, full length extracellular …. The data set is described as above. To be noted: both partners purified.

For “Endo362, endoglin orphan domain construct with the linker region (residues 22-361 or 22-362) (from UniProt P17813 22-361) (domain or fragment)”, the stoichiometry N in data set [1] was 2. In data set [2], the Kd came out at 8.96 nM, the koff was found to be 0.00108 s⁻¹ and the on-rate (kon) was determined as 120000 M⁻¹ s⁻¹.
As to B1, in data set [3], the “stoichiometry N” value was determined as 2.

B2: Bone morphogenetic protein 9 (BMP-9) (ligand, human, UniProt Q9UK05 320-429, looked up)
chain: SAGAGSHCQKTSLRVNFEDIGWDSWIIAPKEYEAYECKGGCFFPLADDVTPTKHAIVQTLVHLKFPTKVGKACCVPTKLSPISVLYKDDMGVPTLKYHYEGMSVAECGCR
notes: BMP-9, human, carrier-free protein from R&D Systems; Immobilised on a CM5 chip by amine coupling; also called Bone Morphogenetic Protein (BMP)-9; source: bought: R&D Systems (carrier free)
As to B2, the Kd in data set [4] is 276 nM; in data set [5], 2.01 nM; in data set [6], 9.94 nM; in data set [7], 3.27 nM; in data set [8] it was 14.7 nM. The koff in data set [4] was 0.254 s⁻¹; in data set [5], 0.000891 s⁻¹; in data set [6] it was 0.00207 s⁻¹; in data set [7], 0.000925 s⁻¹; in data set [8], 0.00153 s⁻¹. For the same molecule, the kon was 914000 M⁻¹ s⁻¹ in data set [4]; 442000 M⁻¹ s⁻¹ in data set [5]; 208000 M⁻¹ s⁻¹ in data set [6]; 283000 M⁻¹ s⁻¹ in data set [7]; 274000 M⁻¹ s⁻¹ in data set [8].

Usually stoichiometry N stands for the number of molecules, sites or subunits per partner or assembly. As usually defined, the koff is the first-order rate constant of dissociation. A word on the kon: it is the second-order rate constant of association.
